Assay results as given in patent US20200207850A1 (MacroGenics, published 2020).

Experiments:
[1] = target: T1, 5T4 on JIMT-1 target cells (UniProt Q13641 32-420, limits assumed); experiment: cell-based or functional assay
T1 sequence (looked up): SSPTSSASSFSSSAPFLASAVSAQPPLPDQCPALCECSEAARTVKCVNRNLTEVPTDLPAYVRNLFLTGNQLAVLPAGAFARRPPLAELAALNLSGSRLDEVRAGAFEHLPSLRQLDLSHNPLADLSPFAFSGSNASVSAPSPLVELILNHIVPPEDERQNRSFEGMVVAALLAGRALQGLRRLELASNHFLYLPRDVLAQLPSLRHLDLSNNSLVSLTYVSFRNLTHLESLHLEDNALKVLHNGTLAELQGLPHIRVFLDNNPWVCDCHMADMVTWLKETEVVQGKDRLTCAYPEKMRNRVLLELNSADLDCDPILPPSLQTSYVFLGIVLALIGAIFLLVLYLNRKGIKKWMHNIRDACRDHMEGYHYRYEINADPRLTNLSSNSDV

[2] = target: T2, CD8 on human T cells (PBMC) (human, UniProt P01732 22-235); experiment: flow cytometry on human PBMC gated CD5+/CD4- (cells carry CD8 and CD3), detection with anti-human Fc-PE
T2 construct: whole, on cells; The CD8+ (CD5+ CD4-) cells also carry CD3; also called CD5+ CD4- gated PBMC; CD8+ T cells

[3] = target: T3, B7-H3 on A498 and JIMT-1 target cells (UniProt Q5ZPR3 29-534, limits assumed); experiment: cell-based or functional assay
T3 sequence (looked up): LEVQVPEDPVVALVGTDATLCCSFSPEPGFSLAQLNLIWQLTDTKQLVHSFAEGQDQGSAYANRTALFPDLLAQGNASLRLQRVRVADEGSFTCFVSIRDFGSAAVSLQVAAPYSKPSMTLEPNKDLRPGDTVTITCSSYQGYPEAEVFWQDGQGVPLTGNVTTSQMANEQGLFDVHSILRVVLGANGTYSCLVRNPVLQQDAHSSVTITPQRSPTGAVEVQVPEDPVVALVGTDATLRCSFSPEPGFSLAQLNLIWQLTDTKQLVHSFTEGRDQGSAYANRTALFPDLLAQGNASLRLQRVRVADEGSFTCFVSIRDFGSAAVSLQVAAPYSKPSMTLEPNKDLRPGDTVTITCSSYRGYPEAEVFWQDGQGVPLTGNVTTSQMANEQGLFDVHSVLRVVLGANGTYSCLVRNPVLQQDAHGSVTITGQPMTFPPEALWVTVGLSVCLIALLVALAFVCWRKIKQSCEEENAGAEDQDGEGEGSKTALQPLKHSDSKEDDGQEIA

[4] = target: ROR1 on JIMT-1 and A549 target cells (UniProt Q01973 30-937, limits assumed); experiment: cell-based or functional assay

T2 sequence (P01732 22-235): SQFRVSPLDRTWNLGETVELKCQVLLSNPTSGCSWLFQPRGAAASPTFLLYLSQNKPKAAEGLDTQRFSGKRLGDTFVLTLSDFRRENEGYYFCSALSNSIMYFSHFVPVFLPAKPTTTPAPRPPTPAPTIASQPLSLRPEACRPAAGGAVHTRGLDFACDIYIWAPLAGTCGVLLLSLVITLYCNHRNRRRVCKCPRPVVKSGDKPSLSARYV

B1: 5T4 mAb 1/CD3 mAb 2/CD8 mAb 1 Tri-Specific Binding Molecule (other)
chain 1: DIQMTQSPSSLSASVGDRVTITCRASQGISNYLAWFQQKPGKAPKSLIYRANRLQSGVPSRFSGSGSGTDFTLTISSLQPEDVATYYCLQYDDFPWTFGQGTKLEIKGGGSGGGGEVQLVESGGGLVQPGGSLRLSCAASGFTFSTYAMNWVRQAPGKGLEWVGRIRSKYNNYATYYADSVKGRFTISRDDSKNSLYLQMNSLKTEDTAVYYCVRHGNFGNSYVSWFAYWGQGTLVTVSSGGCGGGEVAALEKEVAALEKEVAALEKEVAALEKGGGDKTHTCPPCPAPEAAGGPSVFLFPPKPKDTLMISRTPEVTCVVVDVSHEDPEVKFNWYVDGVEVHNAKTKPREEQYNSTYRVVSVLTVLHQDWLNGKEYKCKVSNKALPAPIEKTISKAKGQPREPQVYTLPPSREEMTKNQVSLWCLVKGFYPSDIAVEWESNGQPENNYKTTPPVLDSDGSFFLYSKLTVDKSRWQQGNVFSCSVMHEALHNHYTQKSLSLSPGK
chain 2: QAVVTQEPSLTVSPGGTVTLTCRSSTGAVTTSNYANWVQQKPGQAPRGLIGGTNKRAPWTPARFSGSLLGGKAALTITGAQAEDEADYYCALWYSNLWVFGGGTKLTVLGGGGSGGGGQVQLVQSGAEVKKPGASVKVSCKASGYTFTSFWMHWVRQAPGQGLEWMGRIDPNRGGTEYNEKAKSRVTMTADKSTSTAYMELSSLRSEDTAVYYCAGGNPYYPMDYWGQGTTVTVSSGGCGGGKVAALKEKVAALKEKVAALKEKVAALKE
heavy: EVQLQQSGAELVKPGASVKLSCTASGFNIKDTYIHFVRQRPEQGLEWIGRIDPANDNTLYASKFQGKATITADTSSNTAYMHLCSLTSGDTAVYYCGRGYGYYVFDHWGQGTTLTVSSASTKGPSVFPLAPSSKSTSGGTAALGCLVKDYFPEPVTVSWNSGALTSGVHTFPAVLQSSGLYSLSSVVTVPSSSLGTQTYICNVNHKPSNTKVDKRVEPKSCDKTHTCPPCPAPEAAGGPSVFLFPPKPKDTLMISRTPEVTCVVVDVSHEDPEVKFNWYVDGVEVHNAKTKPREEQYNSTYRVVSVLTVLHQDWLNGKEYKCKVSNKALPAPIEKTISKAKGQPREPQVYTLPPSREEMTKNQVSLSCAVKGFYPSDIAVEWESNGQPENNYKTTPPVLDSDGSFFLVSKLTVDKSRWQQGNVFSCSVMHEALHNRYTQKSLSLSPGK
light: DVQINQSPSFLAASPGETITINCRTSRSISQYLAWYQEKPGKTNKLLIYSGSTLQSGIPSRFSGSGSGTDFTLTISGLEPEDFAMYYCQQHNENPLTFGAGTKLELRRTVAAPSVFIFPPSDEQLKSGTASVVCLLNNFYPREAKVQWKVDNALQSGNSQESVTEQDSKDSTYSLSSTLTLSKADYEKHKVYACEVTHQGLSSPVTKSFNRGEC
For B1, the “EC50 (nM) of killing, CD4+ effector cells, JIMT1-luc target cells, E:T 5:1” value [1] was 0.0045 nM, the “EC50 (nM) of killing, CD8+ effector cells, JIMT1-luc target cells, E:T 5:1” value [1] was 0.0007 nM and the “EC50 (nM) of killing, PanT effector cells, JIMT1-luc target cells, E:T 5:1” value [1] was 0.0009 nM. For the same binder, the “EC50 (read off the curve)” value [2] was about 1 nM.

B2: 5T4 mAb 1/CD3 mAb 2 Low/CD8 mAb 1 Tri-Specific Binding Molecule (other)
chain 1: DIQMTQSPSSLSASVGDRVTITCRASQGISNYLAWFQQKPGKAPKSLIYRANRLQSGVPSRFSGSGSGTDFTLTISSLQPEDVATYYCLQYDDFPWTFGQGTKLEIKGGGSGGGGEVQLVESGGGLVQPGGSLRLSCAASGFTFSTYAMNWVRQAPGKGLEWVGRIRSKYNNYATYYADSVKGRFTISRDDSKNSLYLQMNSLKTEDTAVYYCVRHGNFGNSYVTWFAYWGQGTLVTVSSASTKGEVAACEKEVAALEKEVAALEKEVAALEKGGGDKTHTCPPCPAPEAAGGPSVFLFPPKPKDTLMISRTPEVTCVVVDVSHEDPEVKFNWYVDGVEVHNAKTKPREEQYNSTYRVVSVLTVLHQDWLNGKEYKCKVSNKALPAPIEKTISKAKGQPREPQVYTLPPSREEMTKNQVSLWCLVKGFYPSDIAVEWESNGQPENNYKTTPPVLDSDGSFFLYSKLTVDKSRWQQGNVFSCSVMHEALHNHYTQKSLSLSPGK
chain 2: QAVVTQEPSLTVSPGGTVTLTCRSSTGAVTTSNYANWVQQKPGQAPRGLIGGTNKRAPWTPARFSGSLLGGKAALTITGAQAEDEADYYCALWYSNLWVFGGGTKLTVLGGGGSGGGGQVQLVQSGAEVKKPGASVKVSCKASGYTFTSFWMHWVRQAPGQGLEWMGRIDPNRGGTEYNEKAKSRVTMTADKSTSTAYMELSSLRSEDTAVYYCAGGNPYYPMDYWGQGTTVTVSSASTKGKVAACKEKVAALKEKVAALKEKVAALKE
heavy: B1 heavy
light: B1 light
In the case of B2, the “EC50 (read off the curve)” value [2] is reported as about 0.8 nM.

B3: B7-H3 mAb 1/CD8 mAb 1/CD3 mAb 2 Tri-Specific Binding Molecule (other)
chain 1: DVQINQSPSFLAASPGETITINCRTSRSISQYLAWYQEKPGKTNKLLIYSGSTLQSGIPSRFSGSGSGTDFTLTISGLEPEDFAMYYCQQHNENPLTFGAGTKLELRGGGSGGGGQVQLVQSGAEVKKPGASVKVSCKASGYTFTSYWMQWVRQAPGQGLEWMGTIYPGDGDTRYTQKFKGRVTITADKSTSTAYMELSSLRSEDTAVYYCARRGIPRLWYFDVWGQGTTVTVSSGGCGGGEVAALEKEVAALEKEVAALEKEVAALEKGGGDKTHTCPPCPAPEAAGGPSVFLFPPKPKDTLMISRTPEVTCVVVDVSHEDPEVKFNWYVDGVEVHNAKTKPREEQYNSTYRVVSVLTVLHQDWLNGKEYKCKVSNKALPAPIEKTISKAKGQPREPQVYTLPPSREEMTKNQVSLWCLVKGFYPSDIAVEWESNGQPENNYKTTPPVLDSDGSFFLYSKLTVDKSRWQQGNVFSCSVMHEALHNHYTQKSLSLSPGK
chain 2: DIQMTQSPSSLSASVGDRVTITCRASQDISNYLNWYQQKPGKAPKLLIYYTSRLHSGVPSRFSGSGSGTDFTLTISSLQPEDIATYYCQQGNTLPPTFGGGTKLEIKGGGSGGGGEVQLQQSGAELVKPGASVKLSCTASGFNIKDTYIHFVRQRPEQGLEWIGRIDPANDNTLYASKFQGKATITADTSSNTAYMHLCSLTSGDTAVYYCGRGYGYYVFDHWGQGTTLTVSSGGCGGGKVAALKEKVAALKEKVAALKEKVAALKE
heavy: EVQLVESGGGLVQPGGSLRLSCAASGFTFSTYAMNWVRQAPGKGLEWVGRIRSKYNNYATYYADSVKDRFTISRDDSKNSLYLQMNSLKTEDTAVYYCVRHGNFGNSYVSWFAYWGQGTLVTVSSASTKGPSVFPLAPSSKSTSGGTAALGCLVKDYFPEPVTVSWNSGALTSGVHTFPAVLQSSGLYSLSSVVTVPSSSLGTQTYICNVNHKPSNTKVDKRVEPKSCDKTHTCPPCPAPEAAGGPSVFLFPPKPKDTLMISRTPEVTCVVVDVSHEDPEVKFNWYVDGVEVHNAKTKPREEQYNSTYRVVSVLTVLHQDWLNGKEYKCKVSNKALPAPIEKTISKAKGQPREPQVYTLPPSREEMTKNQVSLSCAVKGFYPSDIAVEWESNGQPENNYKTTPPVLDSDGSFFLVSKLTVDKSRWQQGNVFSCSVMHEALHNRYTQKSLSLSPGK
light: QAVVTQEPSLTVSPGGTVTLTCRSSTGAVTTSNYANWVQQKPGQAPRGLIGGTNKRAPWTPARFSGSLLGGKAALTITGAQAEDEADYYCALWYSNLWVFGGGTKLTVLGRTVAAPSVFIFPPSDEQLKSGTASVVCLLNNFYPREAKVQWKVDNALQSGNSQESVTEQDSKDSTYSLSSTLTLSKADYEKHKVYACEVTHQGLSSPVTKSFNRGEC
With B3 the “EC50 (nM) of killing, CD4+ effector cells, JIMT1-luc target cells, E:T 5:1” value [3] was 1.1 nM, the “EC50 (nM) of killing, CD8+ effector cells, JIMT1-luc target cells, E:T 5:1” value [3] was 0.412 nM and the “EC50 (nM) of killing, PanT effector cells, JIMT1-luc target cells, E:T 5:1” value [3] was 0.535 nM.

B4: ROR1 mAb 1/CD3 mAb 2/CD8 mAb 2 Tri-Specific Binding Molecule (other)
chain 1: QLVLTQSPSASASLGSSVKLTCTLSSGHKTDTIDWYQQQPGKAPRYLMKLEGSGSYNKGSGVPDRFGSGSSSGADRYLTISSLQSEDEADYYCGTDYPGNYLFGGGTQLTVLGGGGSGGGGEVQLVESGGGLVQPGGSLRLSCAASGFTFSTYAMNWVRQAPGKGLEWVGRIRSKYNNYATYYADSVKGRFTISRDDSKNSLYLQMNSLKTEDTAVYYCVRHGNFGNSYVSWFAYWGQGTLVTVSSGGCGGGEVAALEKEVAALEKEVAALEKEVAALEKGGGDKTHTCPPCPAPEAAGGPSVFLFPPKPKDTLMISRTPEVTCVVVDVSHEDPEVKFNWYVDGVEVHNAKTKPREEQYNSTYRVVSVLTVLHQDWLNGKEYKCKVSNKALPAPIEKTISKAKGQPREPQVYTLPPSREEMTKNQVSLWCLVKGFYPSDIAVEWESNGQPENNYKTTPPVLDSDGSFFLYSKLTVDKSRWQQGNVFSCSVMHEALHNHYTQKSLSLSPGK
chain 2: QAVVTQEPSLTVSPGGTVTLTCRSSTGAVTTSNYANWVQQKPGQAPRGLIGGTNKRAPWTPARFSGSLLGGKAALTITGAQAEDEADYYCALWYSNLWVFGGGTKLTVLGGGGSGGGGQEQLVESGGGLVQPGGSLRLSCAASGFTFSDYYMSWVRQAPGKGLEWVATIYPSSGKTYYADSVKGRFTISSDNAKNSLYLQMNSLRAEDTAVYYCARDSYADDAALFDIWGQGTTVTVSSGGCGGGKVAALKEKVAALKEKVAALKEKVAALKE
heavy: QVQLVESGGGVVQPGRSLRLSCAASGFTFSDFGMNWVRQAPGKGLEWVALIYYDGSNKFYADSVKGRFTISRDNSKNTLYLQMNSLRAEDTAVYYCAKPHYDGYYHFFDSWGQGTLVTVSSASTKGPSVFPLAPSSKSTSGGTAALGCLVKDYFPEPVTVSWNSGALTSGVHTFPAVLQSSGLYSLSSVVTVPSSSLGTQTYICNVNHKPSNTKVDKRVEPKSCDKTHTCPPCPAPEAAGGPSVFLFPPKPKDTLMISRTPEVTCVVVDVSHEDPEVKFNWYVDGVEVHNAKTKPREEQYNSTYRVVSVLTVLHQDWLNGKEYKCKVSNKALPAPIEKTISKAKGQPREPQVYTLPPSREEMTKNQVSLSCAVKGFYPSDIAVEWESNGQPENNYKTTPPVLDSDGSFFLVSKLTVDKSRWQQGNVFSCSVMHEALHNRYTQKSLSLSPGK
light: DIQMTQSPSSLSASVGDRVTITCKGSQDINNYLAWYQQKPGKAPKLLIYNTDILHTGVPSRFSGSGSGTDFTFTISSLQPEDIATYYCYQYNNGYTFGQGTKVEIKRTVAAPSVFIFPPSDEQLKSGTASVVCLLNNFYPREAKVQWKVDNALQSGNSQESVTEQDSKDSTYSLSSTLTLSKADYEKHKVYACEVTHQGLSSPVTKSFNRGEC
B4 was tested, and the “EC50 (nM) of killing, CD4+ effector cells, JIMT1-luc target cells, E:T 5:1” value [4] was 0.277 nM, the “EC50 (nM) of killing, CD8+ effector cells, JIMT1-luc target cells, E:T 5:1” value [4] was 0.0021 nM and the “EC50 (nM) of killing, PanT effector cells, JIMT1-luc target cells, E:T 5:1” value [4] was 0.0057 nM.
